Laboratory results published in paper PMC6155142, “OCP–FRP protein complex topologies suggest a mechanism for controlling high light tolerance in cyanobacteria” (Nature Communications, 2018).
Where “and” joins values, the source holds several entries; their conditions need not be identical. Equal values may be shown once. Each block holds one molecule with its values, some of them ahead of it.

B5: ∆NTE^O, orange form of Synechocystis OCP lacking the N-terminal extension (residues 1–20) (domain or fragment)
chain: VPATIARFSQLNAEDQLALIWFAYLEMGKTLTIAAPGAASMQLAENALKEIQAMGPLQQTQAMCDLANRADTPLCRTYASWSPNIKLGFWYRLGELMEQGFVAPIPAGYQLSANANAVLATIQGLESGQQITVLRNAVVDMGFTAGKDGKRIAEPVVPPQDTASRTKVSIEGVTNATVLNYMDNLNANDFDTLIELFTSDGALQPPFQRPIVGKENVLRFFREECQNLKLIPERGVTEPAEDGFTQIKVTGKVQTPWFGGNVGMNIAWRFLLNPEGKIFFVAIDLLASPKELLNFAR

How the values were obtained:
[1] = biological target: ∆NTE^O, orange form of Synechocystis OCP lacking the N-terminal extension (residues 1–20) (Synechocystis sp. PCC 6803) (UniProt P74102); test: cross-linking; FRP species, ∆NTE^O or their mixtures in 20 mM Hepes-NaOH pH 7.5, 150 mM NaCl, 0.1 mM EDTA; 0.1% glutaraldehyde, 25 min, room temperature; 15% SDS-PAGE (no reducing agents with oxFRPcc); conditions: scale: FRP chains per OCP
[2] = biological target: OCP(O) (Synechocystis sp.) (UniProt P74102); conditions: cited from earlier work
[3] = biological target: T1, ∆NTE^O, orange form of Synechocystis OCP lacking the N-terminal extension (residues 1–20) (Synechocystis sp. PCC 6803, UniProt P74102 21-317); test: cross-linking; FRP species, ∆NTE^O or their mixtures in 20 mM Hepes-NaOH pH 7.5, 150 mM NaCl, 0.1 mM EDTA; 0.1% glutaraldehyde, 25 min, room temperature; 15% SDS-PAGE (no reducing agents with oxFRPcc); conditions: both partners purified
T1 construct: orange carotenoid protein (OCP) of Synechocystis sp; PCC 6803 without the NTE (residues 1–20); also called ∆NTE^O monomer
T1 sequence (looked up): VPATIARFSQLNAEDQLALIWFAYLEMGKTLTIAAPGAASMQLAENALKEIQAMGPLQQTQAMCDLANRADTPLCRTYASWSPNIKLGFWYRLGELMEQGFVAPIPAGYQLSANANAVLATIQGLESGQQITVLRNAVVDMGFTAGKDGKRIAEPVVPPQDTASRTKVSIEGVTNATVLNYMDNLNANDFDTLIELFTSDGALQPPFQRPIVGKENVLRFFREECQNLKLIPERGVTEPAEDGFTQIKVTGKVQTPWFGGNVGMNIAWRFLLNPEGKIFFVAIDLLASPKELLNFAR

[4] = biological target: the molecule itself; test: SEC; FRP species alone, 1–40 µM per monomer, pre-incubated at least 20 min at room temperature; Superdex 200 Increase 10/300; 20 mM Tris-HCl pH 7.6, 150 mM NaCl, 0.1 mM EDTA, 3 mM βME (reducing); dimer to monomers
[5] = biological target: T2, OCP–F299C mutant of Synechocystis OCP (Synechocystis sp. PCC 6803, UniProt P74102 1-317, F299C); test: cell-based or functional assay
T2 sequence (looked up): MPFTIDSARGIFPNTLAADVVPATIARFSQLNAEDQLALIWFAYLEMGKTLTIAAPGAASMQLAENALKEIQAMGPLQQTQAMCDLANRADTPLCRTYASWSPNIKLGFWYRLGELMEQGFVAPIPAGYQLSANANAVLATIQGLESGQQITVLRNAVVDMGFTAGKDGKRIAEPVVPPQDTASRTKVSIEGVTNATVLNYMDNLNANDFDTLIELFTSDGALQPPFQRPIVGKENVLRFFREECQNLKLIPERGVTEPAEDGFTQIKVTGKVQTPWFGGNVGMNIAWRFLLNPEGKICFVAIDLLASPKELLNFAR

[6] = biological target: B5
[7] = biological target: T2, OCP–F299C mutant of Synechocystis OCP; test: cross-linking; disulfide trapping: OCP–F299C apoform mixed with FRP–F76C or FRP–K102C, oxidized in the dark by dialysis at 4 °C against GSH/GSSG (or 30–60 min with 10–50 mM H2O2); SDS-PAGE with or without 20 mM βME; conditions: both partners purified
[8] = biological target: T3, OCP^Y201A/W288A, constantly active mutant of Synechocystis orange carotenoid protein (Synechocystis sp. PCC 6803, UniProt P74102 1-317, Y201A | W288A); test: SEC; redFRPcc or FRP-L49E (50 µM) pre-incubated with OCP^AA (37 µM), ∆NTE^O (6 µM) or COCP (8 µM); Superdex 200 Increase 10/300; 280 nm and carotenoid-specific absorbance; conditions: both partners purified
T3 construct: orange carotenoid protein (OCP) of Synechocystis sp; PCC 6803 with Y201A and W288A; also called OCP^AA
T3 sequence (looked up): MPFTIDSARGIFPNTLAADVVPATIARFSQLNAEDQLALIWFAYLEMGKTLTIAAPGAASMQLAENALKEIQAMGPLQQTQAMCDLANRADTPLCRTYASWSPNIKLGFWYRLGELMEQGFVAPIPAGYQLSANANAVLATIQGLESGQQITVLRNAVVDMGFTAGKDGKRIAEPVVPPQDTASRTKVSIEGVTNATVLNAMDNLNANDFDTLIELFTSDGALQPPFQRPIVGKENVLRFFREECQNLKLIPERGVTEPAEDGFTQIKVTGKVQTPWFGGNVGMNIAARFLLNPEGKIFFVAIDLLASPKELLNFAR

[9] = biological target: T4, COCP, individual C-terminal domain of Synechocystis OCP (amino acids 165–317) (Synechocystis sp. PCC 6803, UniProt P74102 165-317); test: as above; conditions: both partners purified
T4 construct: C-terminal domain of the orange carotenoid protein (OCP) of Synechocystis sp; PCC 6803, amino acids 165–317; also called CTD; individual CTD
T4 sequence (looked up): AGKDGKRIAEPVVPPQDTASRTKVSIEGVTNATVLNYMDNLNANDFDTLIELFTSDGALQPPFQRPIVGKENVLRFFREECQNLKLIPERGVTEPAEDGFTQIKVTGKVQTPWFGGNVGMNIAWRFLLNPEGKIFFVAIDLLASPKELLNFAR

[10] = biological target: T1, ∆NTE^O, orange form of Synechocystis …; test: as above; conditions: both partners purified
[11] = biological target: the molecule itself; test: SAXS; oxFRPcc alone (1.7 mg ml^−1) and the ∆NTE^O–oxFRPcc complex (2.41 mg ml^−1, ~40 µM); batch mode, 10 °C, SEC buffer with 3% glycerol, no reducing agents
[12] = biological target: T1, ∆NTE^O, orange form of Synechocystis …; test: as above; conditions: both partners purified
[13] = biological target: T5, oxidized FRPcc (L33C/I43C mutant of Synechocystis FRP), disulfide-trapped dimer (Synechocystis, UniProt P74103 1-109, L33C | I43C, intersubunit disulfide bridges between C33 and C43)
T5 sequence: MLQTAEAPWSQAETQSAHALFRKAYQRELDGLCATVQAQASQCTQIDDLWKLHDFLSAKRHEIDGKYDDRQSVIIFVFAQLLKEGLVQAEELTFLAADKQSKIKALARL

Molecule: FRP (from UniProt P74103)
- Kd [2]: 35000 nM

B1: wild-type Synechocystis fluorescence recovery protein (FRP), His6-tagged, residues 1–109 (natural protein, UniProt P74103 1-109, looked up)
chain: MLQTAEAPWSQAETQSAHALFRKAYQRELDGLLATVQAQASQITQIDDLWKLHDFLSAKRHEIDGKYDDRQSVIIFVFAQLLKEGLVQAEELTFLAADKQSKIKALARL
notes: fluorescence recovery protein (FRP) of Synechocystis, residues 1–109; cloned into pQE81L by BamHI/HindIII; Uncleavable tag; Dissociable dimer; also called FRPwt; wild-type FRP; not shown: His6, N-terminal, kept
- stoichiometry N [3]: 1 FRP chains per OCP (printed as OCP:FRP 1:1) and 2 FRP chains per OCP (printed as OCP:FRP 1:2)
- stoichiometry N [4]: 2
- acceleration of the R–O conversion of photoactivated OCP–F299C at 25 °C [5]: ~20 fold
- Kd [6]: 190 nM

Molecule: B5
- Kd [13]: 220 nM

Further lines, with some results ahead:

- stoichiometry N [1]: 1 and 2
Molecule: FRP homolog from Anabaena variabilis (natural protein)

- stoichiometry N [7]: 1 FRP chains per OCP (printed as 1:1)
B2: FRP–K102C mutant of Synechocystis FRP (natural protein, UniProt P74103 1-109, looked up)
chain: MLQTAEAPWSQAETQSAHALFRKAYQRELDGLLATVQAQASQITQIDDLWKLHDFLSAKRHEIDGKYDDRQSVIIFVFAQLLKEGLVQAEELTFLAADKQSCIKALARL
notes: fluorescence recovery protein (FRP) of Synechocystis with K102C, from M1 (N-terminus after cleavage of the tag: GPDPATM1LQ…); the wild-type construct is residues 1–109; pQE81M vector; the His6 tag is cleavable by 3C protease and leaves GPDPAT before M1

- binding result [8]: binds
- binding result [9]: binds
- binding result [10]: binds
B3: FRPcc (L33C/I43C mutant of Synechocystis FRP) under reducing conditions (natural protein, UniProt P74103 1-109, looked up)
chain: MLQTAEAPWSQAETQSAHALFRKAYQRELDGLCATVQAQASQCTQIDDLWKLHDFLSAKRHEIDGKYDDRQSVIIFVFAQLLKEGLVQAEELTFLAADKQSKIKALARL
notes: fluorescence recovery protein (FRP) of Synechocystis, residues 1–109, with L33C and I43C; made from the His6-tagged wild-type template; Cysteines reduced; dissociable dimer (dimeric above 10 µM load, partly dissociates on dilution); also called redFRPcc; not shown: His6, N-terminal, kept
- stoichiometry N [4]: 2

- stoichiometry N [12]: 2 FRP chains per OCP (printed as 2:1)
B4: oxidized FRPcc (L33C/I43C mutant of Synechocystis FRP), disulfide-trapped dimer (natural protein, UniProt P74103 1-109, looked up)
chain: MLQTAEAPWSQAETQSAHALFRKAYQRELDGLCATVQAQASQCTQIDDLWKLHDFLSAKRHEIDGKYDDRQSVIIFVFAQLLKEGLVQAEELTFLAADKQSKIKALARL
modifications: intersubunit disulfide bridges between C33 and C43
notes: fluorescence recovery protein (FRP) of Synechocystis, residues 1–109, with L33C and I43C; made from the His6-tagged wild-type template; Same polypeptide as m3, but covalently fixed as a dimer that cannot monomerize; 22 N-terminal residues of the construct are absent from 4JDX; also called oxFRPcc; oxFRPcc dimer; source: E. coli T7 SHuffle express, purified in the absence of reducing agents, …
- stoichiometry N [3]: 2 FRP chains per OCP (printed as OCP:FRP 1:2) and 1 FRP chains per OCP (printed as OCP:FRP 2:2)
- stoichiometry N [11]: 2
